These results are taken from publication PMC10772121 (Scientific Reports, 2024).

Several values for one entry are separate records, joined by “and”; a condition that tells them apart may be missing. Equal values may be shown once.

Details in all cases: both partners purified
The target in one test is T1, KIR2DL3 F45Y ectodomain (Homo sapiens, UniProt P43628-1, F45Y).
T1 construct: also called KIR2DL3 F45Y (293F); Var4; source: HEK 293F supernatant, purified (EDTA-resistant Ni-NTA, size exclusion chromatography)
T1 sequence (P43628 22-245 F66Y): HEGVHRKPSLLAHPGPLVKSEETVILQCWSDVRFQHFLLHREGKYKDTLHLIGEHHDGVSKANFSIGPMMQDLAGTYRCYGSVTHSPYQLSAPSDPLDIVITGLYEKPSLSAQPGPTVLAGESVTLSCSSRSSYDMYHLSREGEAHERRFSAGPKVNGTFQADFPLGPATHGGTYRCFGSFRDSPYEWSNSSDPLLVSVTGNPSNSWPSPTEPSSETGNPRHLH
Briefly: BLI; lirilumab (IgG1) loaded on AHC (anti-human IgG) biosensors, KIR protein as analyte (two-fold dilutions from 250 nM); Octet RED384, 25 °C, 20 mM MOPS pH 7.5, 150 mM NaCl, 0.1% BSA, 0.02% Tween-20; global 1:1 binding model, at least 4 curves; single replicates.

The target in test [1] is T2, KIR2DL1 (Sino Biological 13,145-H08H) (Homo sapiens; allele of bought protein …, UniProt P43626-1).
T2 construct: human KIR2DL1, commercially sourced recombinant protein; The catalogue product is recalled to be the extracellular domain with a C-terminal His tag; also called KIR2DL1 (293, Sino Biological); source: bought: Sino Biological 13,145-H08H (293)
T2 sequence (P43626 22-245): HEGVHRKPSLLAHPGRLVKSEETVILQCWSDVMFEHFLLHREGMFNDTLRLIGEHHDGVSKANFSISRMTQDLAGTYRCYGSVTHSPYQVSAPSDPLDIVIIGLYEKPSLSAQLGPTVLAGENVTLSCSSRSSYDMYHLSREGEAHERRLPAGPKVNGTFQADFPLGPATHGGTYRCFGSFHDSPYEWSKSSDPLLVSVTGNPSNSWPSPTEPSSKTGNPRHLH
The test is described as above.

A further test deals with T3, KIR2DL3 H50R ectodomain (Homo sapiens, UniProt P43628-1, H50R).
T3 construct: also called KIR2DL3 H50R (293F); Var7; source: HEK 293F supernatant, purified (EDTA-resistant Ni-NTA, size exclusion chromatography)
T3 sequence (P43628 22-245 H71R): as the sequence (P43628 22-245 F66Y) above, with Y45F, H50R counted along it
The test is described as above.

In the next test the target is T4, KIR2DL3 ectodomain (Homo sapiens, UniProt P43628-1).
T4 construct: also called wild-type KIR2DL3; KIR2DL3 (293F); source: HEK 293F supernatant, purified (EDTA-resistant Ni-NTA, size exclusion chromatography)
T4 sequence (P43628 22-245): as the sequence (P43628 22-245 F66Y) above, with Y45F counted along it
The description is as above.

A further test addresses T5, KIR2DL3 D47N ectodomain (Homo sapiens, UniProt P43628-1, D47N).
T5 construct: also called KIR2DL3 D47N (293F); Var6; source: HEK 293F supernatant, purified (EDTA-resistant Ni-NTA, size exclusion chromatography)
Briefly: BLI; lirilumab (IgG1) loaded on AHC biosensors, KIR2DL3 D47N as analyte (peak concentration 500 nM); Octet RED384, 25 °C, 20 mM MOPS pH 7.5, 150 mM NaCl, 0.1% BSA, 0.02% Tween-20; steady state binding model because the 1:1 model fitted poorly; single replicates.

The target of test [2] is T6, wild-type KIR2DL3 ectodomain (HEK 293F) (Homo sapiens, UniProt P43628-1).
T6 construct: Same construct as m3 but expressed in HEK 293F cells for BLI; source: HEK 293F, purified as the CHO-S protein (HisTrap FF)
T6 sequence (P43628 22-245): as the sequence (P43628 22-245 F66Y) above, with Y45F counted along it
Nature of the test: BLI; lirilumab (IgG1) loaded on anti-human IgG (AHC) biosensors, KIR protein as analyte, 6 two-fold dilutions from 250 nM; 25 °C; 20 mM MOPS pH 7.5, 150 mM NaCl, 0.1% BSA, 0.02% Tween-20; global 1:1 fit; average of 3 technical replicates.

The target in test [3] is T7, Commercially sourced KIR2DL1 (Sino Biological 13,145-H08H) (Homo sapiens; allele of bought protein …, UniProt P43626-1).
T7 construct: KIR2DL1, commercially sourced recombinant protein; source: bought: Sino Biological
T7 sequence (P43626 22-245): as the sequence (P43626 22-245) above
The description is as above.

Another test has as its target T8, KIR2DL3 H50R (Homo sapiens, UniProt P43628-1, H50R).
T8 construct: also called KIR2DL3 H50R variant; source: HEK 293F, purified as the CHO-S protein (HisTrap FF)
The description is as above.

The next test deals with T9, KIR2DL3 F45Y (Homo sapiens, UniProt P43628-1, F45Y).
T9 construct: also called KIR2DL3 F45Y variant; source: HEK 293F, purified as the CHO-S protein (HisTrap FF)
T9 sequence (P43628 22-245 F66Y): as the sequence (P43628 22-245 F66Y) above
The test is described as above.

In a further test the target is T10, KIR2DL3 D47N (Homo sapiens, UniProt P43628-1, D47N).
T10 construct: also called KIR2DL3 D47N variant; KIR2DL3 D47N mutant; source: HEK 293F, purified as the CHO-S protein (HisTrap FF)
T10 sequence (P43628 22-245 D68N): as the sequence (P43628 22-245 F66Y) above, with Y45F, D47N counted along it
Nature of the test: BLI; lirilumab (IgG1) loaded on anti-human IgG (AHC) biosensors, KIR2DL3 D47N as analyte, two-fold dilutions from 500 nM; 25 °C; 20 mM MOPS pH 7.5, 150 mM NaCl, 0.1% BSA, 0.02% Tween-20; steady state equilibrium model (kinetic fit unsuccessful); average of 3 technical replicates.

T5 sequence (P43628 22-245 D68N): as the sequence (P43628 22-245 F66Y) above, with Y45F, D47N counted along it
T8 sequence (P43628 22-245 H71R): as the sequence (P43628 22-245 F66Y) above, with Y45F, H50R counted along it

B1: lirilumab (IgG1) (antibody, V domains shown)
VH: QVQLVQSGAEVKKPGSSVKVSCKASGGTFSFYAISWVRQAPGQGLEWMGGFIPIFGAANYAQKFQGRVTITADESTSTAYMELSSLRSDDTAVYYCARIPSGSYYYDYDMDVWGQGTTVTVSS
VL: EIVLTQSPVTLSLSPGERATLSCRASQSVSSYLAWYQQKPGQAPRLLIYDASNRATGIPARFSGSGSGTDFTLTISSLEPEDFAVYYCQQRSNWMYTFGQGTKLEIK
With B1, the Kd with KIR2DL3 F45Y ectodomain was 10.2 nM and 10.8 nM and 8.5 nM; in test [1], 11.5 nM and 9.6 nM and 8.8 nM; in the test with KIR2DL3 H50R ectodomain, 7.98 nM and 10.6 nM and 15 nM; with KIR2DL3 ectodomain, 1.64 nM and 2.83 nM and 3.78 nM; with KIR2DL3 D47N ectodomain it was 1400 nM and 1900 nM. The koff is 0.00125 s⁻¹ and 0.00155 s⁻¹ and 0.00145 s⁻¹ with KIR2DL3 F45Y ectodomain; 0.000954 s⁻¹ and 0.000995 s⁻¹ and 0.000947 s⁻¹ in test [1]; 0.00195 s⁻¹ and 0.00244 s⁻¹ and 0.00317 s⁻¹ in the test with KIR2DL3 H50R ectodomain; 0.000366 s⁻¹ and 0.000622 s⁻¹ and 0.000892 s⁻¹ with KIR2DL3 ectodomain. Further, the kon is 122000 M⁻¹ s⁻¹ and 144000 M⁻¹ s⁻¹ and 170000 M⁻¹ s⁻¹ with KIR2DL3 F45Y ectodomain; 83200 M⁻¹ s⁻¹ and 104000 M⁻¹ s⁻¹ and 107000 M⁻¹ s⁻¹ in test [1]; 244000 M⁻¹ s⁻¹ and 231000 M⁻¹ s⁻¹ and 212000 M⁻¹ s⁻¹ in the test with KIR2DL3 H50R ectodomain; 224000 M⁻¹ s⁻¹ and 220000 M⁻¹ s⁻¹ and 236000 M⁻¹ s⁻¹ with KIR2DL3 ectodomain.

B2: lirilumab (IgG1) (antibody, V domains shown)
VH: B1 VH
VL: B1 VL
As to B2, the Kd in test [2] stood at 2.8 nM; in [3] it was 10 nM; in the test with KIR2DL3 H50R, 11.2 nM; with KIR2DL3 F45Y it was 9.9 nM; in the test with KIR2DL3 D47N it was 1650 nM.
